{"source": "paper PMC2742680", "molecular_target": "Galdieria sulphuraria sarcosine dimethylglycine methyltransferase (Galdieria sulphuraria)", "experiment": "SEC", "data": [{"substance": "Galdieria sulphuraria sarcosine dimethylglycine methyltransferase (enzyme)", "values": [{"measurement": "stoichiometry N", "value": 2}]}]}
